Test results as given in patent US20240124597A1 (Bristol-Myers Squibb, published 2024).
Positions count from the first letter of the chain named. In names and notes the source's numbering stands. Each block holds one binder with its values, some of them ahead of it.

Legend:
[1] = target: T1, human-CD40-monomer protein (human, UniProt P25942 21-193, limits assumed); assay: SPR, Ab captured on protein A, hCD40 monomer 500 and 50 nM, 1:1 fit; supernatant
T1 construct: Soluble monomer generated in house, used as SPR analyte; also called hCD40; hCD40-monomer
Experimental: Titer analysis was performed using Biolayer Interferometry (BLI) on an Octet RED instrument (Fortebio) by capturing antibodies from supernatant using protein A sensor tips and measuring capture response with respect to a standard curve obtained using a control antibody sample. SPR data were obtained by capturing antibodies on a protein A surface and testing the binding of 500 nM and 50 nM injections of human-CD40 analyte, using a BIAcore™ T200 instrument (GE Healthcare). The kinetic data for the two concentrations of hCD40-monomer were fit to a 1:1 Langmuir model, to yield estimates of the kinetic and affinity values for these interactions, and for comparison of the different molecules.

[2] = target: T1, human-CD40-monomer protein; assay: SPR, Ab captured on protein A, 1 uM hCD40 monomer, single concentration, apparent value
Experimental: The CD40 kinetic and affinity data for human-CD40 monomer binding to mouse anti-human CD40 antibodies captured on a protein A sensor chip surface were assessed by SPR. The data shown are for a single concentration of CD40 analyte (1 μM) and are therefore reported as apparent (app) values.

T1 sequence (P25942 21-193 limits assumed): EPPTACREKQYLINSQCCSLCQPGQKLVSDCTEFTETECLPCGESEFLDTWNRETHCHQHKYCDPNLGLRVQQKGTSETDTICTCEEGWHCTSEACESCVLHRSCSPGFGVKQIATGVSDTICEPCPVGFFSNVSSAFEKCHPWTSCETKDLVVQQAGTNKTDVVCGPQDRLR

B4: Y12XX-hz19 (antibody, human IgG1, kappa, V domains shown)
VH: QVQLVQSGAEVKKPGSSVKVSCKASGYAFTSYWMHWVRQRPGQGLEWMGYINPTTGYSAYNQKFKDKATLTADKSTSTAYMELSSLRSEDTAVYYCARWDPRPFAYWGQGTLVTVSS
VL: DIQMTQSPSFLSASVGDRVTITCKASQDVSTAVAWYQQKPGKAPKLLIYSASYRYTGVPSRFSGSGSGTDFTLTISSLQPEDFATYYCQQHYSTPWTFGGGTKVEIKR
notes: Humanized, IgG1-P238K; supernatant sample
Kd [1]: 6.2 nM
koff [1]: 0.0023 s⁻¹
kon [1]: 380000 M⁻¹ s⁻¹

B5: Y12XX-hz22 (antibody, human IgG1, kappa, V domains shown)
VH: B4 VH with R40A, P101A
VL: B4 VL
notes: as for B4
Kd [1]: 210 nM
koff [1]: 0.079 s⁻¹
kon [1]: 370000 M⁻¹ s⁻¹

B8: Y12XX-hz39 (antibody, human IgG1, kappa, V domains shown)
VH: QVQLVQSGAEVKKPGSSVKVSCKASGYAFTSYWMHWVRQRPGQGLEWIGQINPSNGRSQYNEKFKTRVTITADKSTSTAYMELSSLRSEDTAVYYCARWGLQPFAYWGQGTLVTVSS
VL: EIVMTQSPATLSVSPGERATLSCKASQDVSTAVAWYQQKPGQAPRLLIYSASYRYTGIPARFSGSGSGTEFTLTISSLQSEDFAVYYCQQHYSTPWTFGGGTKVEIKR
notes: as for B4
Kd [1]: 3.5 nM
koff [1]: 0.00084 s⁻¹
kon [1]: 240000 M⁻¹ s⁻¹

B9: Y12XX-hz32 (antibody, human IgG1, kappa, V domains shown)
VH: B4 VH with R40A
VL: B8 VL
notes: as for B4
Kd [1]: 10 nM
koff [1]: 0.003 s⁻¹
kon [1]: 290000 M⁻¹ s⁻¹

B10: Y12XX-hz12 (antibody, human IgG1, kappa, V domains shown)
VH: B8 VH with R40A, I48M, N55Q
VL: B4 VL with F10S, L73F, F83I
notes: as for B4
Kd [1]: 8.3 nM
koff [1]: 0.0014 s⁻¹
kon [1]: 170000 M⁻¹ s⁻¹

B11: Y12XX-hz37 (antibody, human IgG1, kappa, V domains shown)
VH: B8 VH with R40A, I48M
VL: B8 VL
notes: as for B4
Kd [1]: 3.3 nM
koff [1]: 0.00084 s⁻¹
kon [1]: 260000 M⁻¹ s⁻¹

B16: Y12XX-hz11 (antibody, human IgG1, kappa, V domains shown)
VH: B8 VH
VL: B4 VL with F10S, L73F, F83I
notes: as for B4
Kd [1]: 5 nM
koff [1]: 0.00088 s⁻¹
kon [1]: 180000 M⁻¹ s⁻¹

B17: Y12XX-hz36 (antibody, human IgG1, kappa, V domains shown)
VH: B4 VH with R40A, P101A
VL: B8 VL
notes: as for B4
Kd [1]: 250 nM
koff [1]: 0.1 s⁻¹
kon [1]: 390000 M⁻¹ s⁻¹

B18: Y12XX-hz27 (antibody, human IgG1, kappa, V domains shown)
VH: B8 VH with R40A, I48M, G56A
VL: B4 VL
notes: as for B4
Kd [1]: 4.7 nM
koff [1]: 0.00088 s⁻¹
kon [1]: 190000 M⁻¹ s⁻¹

B19: Y12XX-hz41 (antibody, human IgG1, kappa, V domains shown)
VH: B8 VH with R40A, I48M, G56A
VL: B8 VL
notes: as for B4
Kd [1]: 3.8 nM
koff [1]: 0.00094 s⁻¹
kon [1]: 250000 M⁻¹ s⁻¹

B21: Y12XX-hz29 (antibody, human IgG1, kappa, V domains shown)
VH: B4 VH with R40A, Y50F, A59E, K67R, A68V, L70I, D100G, P101L, R102P
VL: B8 VL
notes: as for B4
Kd [1]: 0.069 nM
koff [1]: 2.6e-06 s⁻¹
kon [1]: 37000 M⁻¹ s⁻¹

B24: Y12XX-hz24 (antibody, human IgG1, kappa, V domains shown)
VH: B8 VH with I48M
VL: B4 VL
notes: as for B4
Kd [1]: 4.4 nM
koff [1]: 0.00082 s⁻¹
kon [1]: 190000 M⁻¹ s⁻¹

B26: Y12XX-hz26 (antibody, human IgG1, kappa, V domains shown)
VH: B8 VH with R40A, I48M, N55Q
VL: B4 VL
notes: as for B4
Kd [1]: 7.5 nM
koff [1]: 0.0012 s⁻¹
kon [1]: 160000 M⁻¹ s⁻¹

B28: Y1258 (antibody, human IgG1, kappa)
heavy: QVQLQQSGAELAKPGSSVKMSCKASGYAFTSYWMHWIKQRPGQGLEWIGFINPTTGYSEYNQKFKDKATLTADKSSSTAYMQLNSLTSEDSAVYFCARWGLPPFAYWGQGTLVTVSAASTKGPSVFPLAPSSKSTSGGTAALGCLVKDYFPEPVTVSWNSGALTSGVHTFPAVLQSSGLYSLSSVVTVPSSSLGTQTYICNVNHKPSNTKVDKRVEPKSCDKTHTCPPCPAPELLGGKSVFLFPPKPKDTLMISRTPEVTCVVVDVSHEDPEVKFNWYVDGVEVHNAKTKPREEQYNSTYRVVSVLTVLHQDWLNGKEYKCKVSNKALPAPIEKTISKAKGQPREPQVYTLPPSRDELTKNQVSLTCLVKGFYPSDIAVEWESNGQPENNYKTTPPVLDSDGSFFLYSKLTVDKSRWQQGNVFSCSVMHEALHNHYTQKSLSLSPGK
light: DIVMTQSHKFMSTSVGDRVSITCKASQDVSTAVAWYQQKPGQSPKLLIYSASYRYTGVPDRFTGSGSGTDFTFTISSVQAEDLAVYYCQQHYSTPWTFGGGTKLEIKRTVAAPSVFIFPPSDEQLKSGTASVVCLLNNFYPREAKVQWKVDNALQSGNSQESVTEQDSKDSTYSLSSTLTLSKADYEKHKVYACEVTHQGLSSPVTKSFNRGEC
notes: Chimeric, mouse variable and human constant regions; supernatant sample; also called chimeric Y1258
Kd [1]: 0.067 nM
koff [1]: 3.8e-06 s⁻¹
kon [1]: 56000 M⁻¹ s⁻¹

B29: Y1262 (antibody, human IgG1, kappa)
heavy: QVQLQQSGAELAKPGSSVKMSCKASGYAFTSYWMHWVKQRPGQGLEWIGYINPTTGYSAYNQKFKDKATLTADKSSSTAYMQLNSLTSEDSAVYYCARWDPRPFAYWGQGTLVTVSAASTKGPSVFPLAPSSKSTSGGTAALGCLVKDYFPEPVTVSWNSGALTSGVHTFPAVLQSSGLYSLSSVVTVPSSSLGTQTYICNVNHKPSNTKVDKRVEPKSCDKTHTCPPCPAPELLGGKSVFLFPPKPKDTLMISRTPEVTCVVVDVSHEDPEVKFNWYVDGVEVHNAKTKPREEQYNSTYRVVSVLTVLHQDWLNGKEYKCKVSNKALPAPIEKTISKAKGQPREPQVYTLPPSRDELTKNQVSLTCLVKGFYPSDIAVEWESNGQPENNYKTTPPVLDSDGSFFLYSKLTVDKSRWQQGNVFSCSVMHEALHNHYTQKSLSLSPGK
light: B28 light with S67Y
notes: Chimeric, mouse variable and human constant regions; supernatant sample; also called chimeric Y1262; Chim
Kd [1]: 8 nM
koff [1]: 0.0028 s⁻¹
kon [1]: 350000 M⁻¹ s⁻¹

Results, then the binder that gave them:

Kd [1]: 3.6 nM
koff [1]: 0.00073 s⁻¹
kon [1]: 200000 M⁻¹ s⁻¹
B1: Y12XX-hz10 (antibody, human IgG1, kappa, V domains shown)
VH: B8 VH with I48M
VL: B4 VL with F10S, L73F, F83I
notes: as for B4

Kd [1]: 7.1 nM
koff [1]: 0.0024 s⁻¹
kon [1]: 350000 M⁻¹ s⁻¹
B2: Y12XX-hz18 (antibody, human IgG1, kappa, V domains shown)
VH: B4 VH with R40A
VL: B4 VL
notes: as for B4

Kd [1]: 8.2 nM
koff [1]: 0.0025 s⁻¹
kon [1]: 310000 M⁻¹ s⁻¹
B3: Y12XX-hz20 (antibody, human IgG1, kappa, V domains shown)
VH: B4 VH with M48I, S84N
VL: B4 VL
notes: as for B4

Kd [1]: 6.4 nM
koff [1]: 0.0024 s⁻¹
kon [1]: 380000 M⁻¹ s⁻¹
B6: Y12XX-hz6 (antibody, human IgG1, kappa, V domains shown)
VH: B4 VH with M48I, S84N
VL: B4 VL with F10S, L73F, F83I
notes: as for B4

Kd [1]: 0.018 nM
koff [1]: 7.3e-07 s⁻¹
kon [1]: 41000 M⁻¹ s⁻¹
B7: Y12XX-hz30 (antibody, human IgG1, kappa, V domains shown)
VH: B4 VH with Y50F, A59E, K67R, A68V, L70I, D100G, P101L, R102P
VL: B8 VL
notes: as for B4

Kd [1]: 210 nM
koff [1]: 0.077 s⁻¹
kon [1]: 370000 M⁻¹ s⁻¹
B12: Y12XX-hz17 (antibody, human IgG1, kappa, V domains shown)
VH: B8 VH with Q50F, S54T, N55T, R57Y, Q59E, E62Q, T66D, S84N, Q102P
VL: B4 VL
notes: as for B4

Kd [1]: 3.6 nM
koff [1]: 0.00088 s⁻¹
kon [1]: 250000 M⁻¹ s⁻¹
B13: Y12XX-hz38 (antibody, human IgG1, kappa, V domains shown)
VH: B8 VH with I48M
VL: B8 VL
notes: as for B4

Kd [1]: 3.2 nM
koff [1]: 0.00064 s⁻¹
kon [1]: 200000 M⁻¹ s⁻¹
B14: Y12XX-hz23 (antibody, human IgG1, kappa, V domains shown)
VH: B8 VH with R40A, I48M
VL: B4 VL
notes: as for B4

Kd [1]: 11 nM
koff [1]: 0.0033 s⁻¹
kon [1]: 290000 M⁻¹ s⁻¹
B15: Y12XX-hz33 (antibody, human IgG1, kappa, V domains shown)
VH: B4 VH
VL: B8 VL
notes: as for B4

Kd [1]: 0.007 nM
koff [1]: 2.9e-07 s⁻¹
kon [1]: 41000 M⁻¹ s⁻¹
B20: Y12XX-hz31 (antibody, human IgG1, kappa, V domains shown)
VH: B8 VH with Q50F, S54T, N55T, R57Y, Q59E, E62Q, T66D, S84N, Q102P
VL: B8 VL
notes: as for B4

Kd [1]: 8 nM
koff [1]: 0.00013 s⁻¹
kon [1]: 16000 M⁻¹ s⁻¹
B22: Y12XX-hz15 (antibody, human IgG1, kappa, V domains shown)
VH: B4 VH with R40A, Y50F, A59E, K67R, A68V, L70I, D100G, P101L, R102P
VL: B4 VL
notes: as for B4

Kd [1]: 3.9 nM
koff [1]: 0.00083 s⁻¹
kon [1]: 210000 M⁻¹ s⁻¹
B23: Y12XX-hz13 (antibody, human IgG1, kappa, V domains shown)
VH: B8 VH with R40A, I48M, G56A
VL: B4 VL with F10S, L73F, F83I
notes: as for B4

Kd [1]: 3.4 nM
koff [1]: 0.00064 s⁻¹
kon [1]: 190000 M⁻¹ s⁻¹
B25: Y12XX-hz25 (antibody, human IgG1, kappa, V domains shown)
VH: B8 VH
VL: B4 VL
notes: as for B4

Kd [2]: 120 nM
koff [2]: 0.0092 s⁻¹
kon [2]: 77000 M⁻¹ s⁻¹
B27: ADX_Y1072.ZZ0-1 (antibody, V domains shown)
VH: QVQFQQSGAELARPGASVKLSCKASGYTFTSYWMQWVKQRPGQGLEWIGTIYPGDGDSRYNQKFKGKALLTADKSSSIAYMQLNSLASEDSAVYFCARFSLYDGYPYYFDYWGQGTTLTVSS
VL: DVVMTQTPLSLPVSLGDQASISCRSSQSLVHRNGNTYLHWYLQKPGQSPKLLIYRVSNRFSGVPDRFSGSGSGTDFTLKISRVEAEDLGIYFCSQSTHFPYTFGGGTKLEIK
notes: Mouse anti-human-CD40 antibody

Kd [1]: 7.6 nM
koff [1]: 0.0028 s⁻¹
kon [1]: 370000 M⁻¹ s⁻¹
B30: Y12XX-hz34 (antibody, human IgG1, kappa, V domains shown)
VH: B4 VH with M48I, S84N
VL: B8 VL
notes: as for B4
